Reference: article PMC12095048 (Oncogene, 2025)
One block for each binder: values may come before it.

Assays:
[1] = target: His-CHK2 (WT), full length (UniProt O96017 1-543); test: pull-down
[2] = target: His-HIF-1α (WT), full length (UniProt Q16665 1-826); test: pull-down
His-HIF-1α (WT), full length, sequence (Q16665 whole entry): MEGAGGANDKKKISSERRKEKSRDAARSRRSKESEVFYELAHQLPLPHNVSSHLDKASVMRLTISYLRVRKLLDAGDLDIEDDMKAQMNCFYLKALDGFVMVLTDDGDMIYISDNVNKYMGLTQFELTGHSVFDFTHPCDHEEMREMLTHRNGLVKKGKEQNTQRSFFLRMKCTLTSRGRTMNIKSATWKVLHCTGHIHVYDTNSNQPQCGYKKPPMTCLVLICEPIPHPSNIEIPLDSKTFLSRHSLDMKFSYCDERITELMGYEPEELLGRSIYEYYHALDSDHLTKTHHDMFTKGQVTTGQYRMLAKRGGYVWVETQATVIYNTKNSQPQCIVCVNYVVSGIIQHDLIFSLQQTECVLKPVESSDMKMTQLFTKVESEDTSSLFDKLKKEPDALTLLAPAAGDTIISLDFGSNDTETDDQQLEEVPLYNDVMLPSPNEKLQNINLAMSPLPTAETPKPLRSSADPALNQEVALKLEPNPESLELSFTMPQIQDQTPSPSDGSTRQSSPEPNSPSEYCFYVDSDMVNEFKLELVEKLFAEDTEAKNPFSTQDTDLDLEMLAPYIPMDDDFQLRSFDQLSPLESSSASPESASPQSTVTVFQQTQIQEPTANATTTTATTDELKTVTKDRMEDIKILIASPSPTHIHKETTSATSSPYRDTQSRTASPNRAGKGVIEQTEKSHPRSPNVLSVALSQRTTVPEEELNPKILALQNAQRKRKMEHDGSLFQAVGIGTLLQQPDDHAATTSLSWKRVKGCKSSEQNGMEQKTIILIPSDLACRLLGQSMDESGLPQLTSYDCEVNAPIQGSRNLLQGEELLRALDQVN

- binding result [1]: binds
B1: GST-HIF-1α (aa 81–200) (domain or fragment)
chain: not shown

- binding result [2]: binds
B2: GST-CHK2 (aa 1–193) (domain or fragment, UniProt O96017 1-193, looked up)
chain: MSRESDVEAQQSHGSSACSQPHGSVTQSQGSSSQSQGISSSSTSTMPNSSQSSHSSSGTLSSLETVSTQELYSIPEDQEPEDQEPEEPTPAPWARLWALQDGFANLECVNDNYWFGRDKSCEYCFDEPLLKRTDKYRTYSKKHFRIFREVGPKNSYIAYIEDHSGNGTFVNTELVGKGKRRPLNNNSEIALSL

- binding result [1]: binds
B3: GST-HIF-1α (aa 400–575) (domain or fragment, UniProt Q16665 400-575, looked up)
chain: LAPAAGDTIISLDFGSNDTETDDQQLEEVPLYNDVMLPSPNEKLQNINLAMSPLPTAETPKPLRSSADPALNQEVALKLEPNPESLELSFTMPQIQDQTPSPSDGSTRQSSPEPNSPSEYCFYVDSDMVNEFKLELVEKLFAEDTEAKNPFSTQDTDLDLEMLAPYIPMDDDFQLR
